One protein from patent publication US7778779 can be followed below.

This series deals with T1, 19-residue peptide comprising amino acids 788-806 of human HIF-1α, Q16665.
T1 chain: DESGLPQLTSYDCEVNAPI

B1: FIH (Factor Inhibiting HIF), human (protein)
chain: MAATAAEAVASGSGEPREEAGALGPAWDESQLRSYSFPTRPIPRLSQSDPRAEELIENEEPVVLTDTNLVYPALKWDLEYLQENIGNGDFSVYSASTHKFLYYDEKKMANFQNFKPRSNREEMKFHEFVEKLQDIQQRGGEERLYLQQTLNDTVGRKIVMDFLGFNWNWINKQQGKRGWGQLTSNLLLIGMEGNVTPAHYDEQQNFFAQIKGYKRCILFPPDQFECLYPYPVHHPCDRQSQVDFDNPDYERFPNFQNVVGYETVVGPGDVLYIPMYWWHHIESLLNGGITITVNFWYKGAPTPKRIEYPLKAHQKVAIMRNIEKMLGEALGNPQEVGPLLNTMIKGRYN
Take B1: the “hydroxylation of the peptide (mass spectrometry of HPLC purified material)” value was “a mass difference of +8Da of the doubly charged ions, corresponding to +16Da in the peptide (oxygen)”.
